Article PMC12464775 (2025)
Ends that are not written are not given here. * marks the point of attachment. Biotin = O=C1N[C@H]2[C@H](CS[C@H]2CCCCC(=O)*)N1; azide = [N-]=[N+]=N*

B1: mouse RNF43 (domain or fragment)
chain: GFGHTGRVLAAAVESERSAEQKAVIRVIPLKMDPTGKLNLTLEGVFAGVAEVTPAEGKLMQSHPLYLCNASDDDNLEPGFISIVKLESPRRAPRPCLSLASKARMAGERGANAVLFDITEDRSAAEQLQQPLGLTKPVVLIWGSDAAKLMEFVYKNRKAYVWIELKEPPAGANY
B2: extracellular domain (ECD) of the human RNF43 protein, biotinylated (domain or fragment)
chain: GFGRTGLVLAAAVESERSAEQKAIIRVIPLKMDPTGKLNLTLEGVFAGVAEITPAEGKLMQSHPLYLCNASDDDNLEPGFISIVKLESPRRAPRPCLSLASKARMAGERGASAVLFDITEDRAAAEQLQQPLGLTWPVVLIWGNDAEKLMEFVYKNQKAHVRIELKEPPAWPDY
modifications: biotin (EZ-link-NHS-PEG4-biotin), 1–2 biotin molecules per protein

Experiments:
[1] = molecular target: B2; test: SPR
[2] = molecular target: GUR-1.6.12.12; test: SPR
[3] = molecular target: GUR-1.6.12.4; test: SPR
[4] = molecular target: GUR-1.6.12.16; test: SPR
[5] = molecular target: B2; test: SPR
[6] = molecular target: NAz-GUR-1.6.12.2; test: SPR
[7] = molecular target: GUR-1; test: SPR
[8] = molecular target: B1; test: SPR
[9] = molecular target: T1, deglycosylated RNF43 (human, UniProt Q68DV7 24-197, biotin; deglycosylated with Deglycosylation Mix II (glycosylation sites N62 and N92)); test: SPR; deglycosylated RNF43
T1 chain: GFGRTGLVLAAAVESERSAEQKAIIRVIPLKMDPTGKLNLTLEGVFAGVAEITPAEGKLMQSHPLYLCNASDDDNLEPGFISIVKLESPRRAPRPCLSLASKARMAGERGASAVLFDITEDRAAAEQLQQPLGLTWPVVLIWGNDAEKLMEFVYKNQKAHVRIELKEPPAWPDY

[10] = molecular target: B2; test: SPR; RNF43 immobilized
[11] = molecular target: T2, human RNF43 (in solution) (human); test: SPR; bio-GUR-1.6.12.2 immobilized
T2 chain: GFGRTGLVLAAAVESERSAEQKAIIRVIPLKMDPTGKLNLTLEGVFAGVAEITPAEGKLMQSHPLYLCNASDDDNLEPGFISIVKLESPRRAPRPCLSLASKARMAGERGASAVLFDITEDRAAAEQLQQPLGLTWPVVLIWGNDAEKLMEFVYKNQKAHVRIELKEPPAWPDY

With azide-EQCTSTQDLCHDYSHVCCWPLDCRWAVKYQWFWDCIG (designed binder, also: dimer via bivalent PEG5 linker (azide–alkyne cycloaddition)) [di-GUR-1.6.12.2] the Kd [1] was 0.06 nM.

azide-EQCTSTQDLCHDYSHVCCWPLDCRWAVKYQWFWDCIG (designed binder, also: hexamer via six-armed PEG linker (azide–alkyne cycloaddition)) [hex-GUR-1.6.12.2] showed a Kd [1] of 0.0002 nM.

For B1, the Kd [2] was 5.1 nM, the Kd [3] was 4.5 nM and the Kd [4] was 1.6 nM.

QCVKKDELCIPYYLDCCWPLDCRWAVKYQWFWDCIG (designed binder) [GUR-1.6.12] showed a Kd [5] of 56 nM.

With QCVKKDELCIPYYLDCCEPLECRWAVKYQWFWDCIG (designed binder) [GUR-1.6] the Kd [5] was 92 nM.

For B2, the Kd [6] was 2.9 nM, the Kd [2] was 7.9 nM and the Kd [3] was 3.9 nM. For the same binder, the Kd [7] was 1220 nM and the Kd [4] was 4 nM.

In the case of HDYSHVCCWPLDCRWAVKYQWFWDCIG [truncated peptide GUR-1.6.12.2 H11-G37], the Kd [1] is reported as 4.6 nM.

EQCTSTQDLCHDYSHVCCWPLDCRWAVKYQWFWDCIG (designed binder) [GUR-1.6.12.2] gave a Kd [5] of 1.1 nM, a Kd [8] of 2.1 nM and a Kd [9] of 2.8 nM.

Work on Biotin-EQCTSTQDLCHDYSHVCCWPLDCRWAVKYQWFWDCIG (designed binder, cysteine pairing not given here) [N-terminal biotinylated GUR-1.6.12.2] yielded a Kd [10] of 0.5 nM and a Kd [11] of 46.9 nM.
